# According to US20220332804A1 (CSL INNOVATION, published 2022):
# T1: human C2 I320A (human, UniProt P06681 21-752)
# T1 sequence: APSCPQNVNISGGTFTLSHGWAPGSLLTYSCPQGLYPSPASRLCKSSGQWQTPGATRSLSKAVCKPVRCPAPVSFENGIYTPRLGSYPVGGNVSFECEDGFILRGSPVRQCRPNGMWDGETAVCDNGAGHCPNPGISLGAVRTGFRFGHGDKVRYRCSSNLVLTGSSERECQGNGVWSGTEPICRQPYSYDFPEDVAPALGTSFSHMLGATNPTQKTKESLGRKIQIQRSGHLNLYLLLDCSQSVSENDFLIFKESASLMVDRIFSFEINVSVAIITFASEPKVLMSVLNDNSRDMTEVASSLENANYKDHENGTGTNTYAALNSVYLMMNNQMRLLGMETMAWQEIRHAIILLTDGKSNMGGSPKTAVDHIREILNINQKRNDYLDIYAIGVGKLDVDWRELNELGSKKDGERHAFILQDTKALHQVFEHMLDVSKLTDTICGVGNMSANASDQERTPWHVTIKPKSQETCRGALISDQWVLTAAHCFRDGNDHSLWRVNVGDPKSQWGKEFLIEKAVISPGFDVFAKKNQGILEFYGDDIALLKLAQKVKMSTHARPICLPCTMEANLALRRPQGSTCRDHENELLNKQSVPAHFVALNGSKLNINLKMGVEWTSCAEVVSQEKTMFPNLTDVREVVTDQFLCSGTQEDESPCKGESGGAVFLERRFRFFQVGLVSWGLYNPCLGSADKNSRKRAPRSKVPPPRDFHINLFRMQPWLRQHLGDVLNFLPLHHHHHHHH
# T2: human C2 E324A (human, UniProt P06681 21-752)
# T2 sequence: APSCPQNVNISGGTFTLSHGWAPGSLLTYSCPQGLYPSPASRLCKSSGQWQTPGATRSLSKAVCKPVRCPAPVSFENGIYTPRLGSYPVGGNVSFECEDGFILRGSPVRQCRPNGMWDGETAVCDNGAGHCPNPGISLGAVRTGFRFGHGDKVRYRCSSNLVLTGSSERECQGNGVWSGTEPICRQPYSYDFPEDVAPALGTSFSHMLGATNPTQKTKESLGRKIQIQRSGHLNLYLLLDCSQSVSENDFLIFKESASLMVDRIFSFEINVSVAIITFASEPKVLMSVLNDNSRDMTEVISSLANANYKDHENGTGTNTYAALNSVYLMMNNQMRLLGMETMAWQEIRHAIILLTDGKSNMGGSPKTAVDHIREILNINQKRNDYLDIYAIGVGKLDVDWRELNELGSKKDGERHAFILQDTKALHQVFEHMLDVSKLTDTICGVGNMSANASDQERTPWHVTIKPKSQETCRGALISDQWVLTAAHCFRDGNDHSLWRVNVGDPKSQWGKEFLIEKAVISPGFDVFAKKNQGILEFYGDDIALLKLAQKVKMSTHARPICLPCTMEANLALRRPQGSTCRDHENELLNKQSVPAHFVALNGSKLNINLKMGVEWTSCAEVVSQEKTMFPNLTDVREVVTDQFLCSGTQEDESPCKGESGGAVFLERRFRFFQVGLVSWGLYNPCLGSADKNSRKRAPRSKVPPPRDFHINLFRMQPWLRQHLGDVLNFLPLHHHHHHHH
# T3: human C2 N325A (human, UniProt P06681 21-752)
# T3 sequence: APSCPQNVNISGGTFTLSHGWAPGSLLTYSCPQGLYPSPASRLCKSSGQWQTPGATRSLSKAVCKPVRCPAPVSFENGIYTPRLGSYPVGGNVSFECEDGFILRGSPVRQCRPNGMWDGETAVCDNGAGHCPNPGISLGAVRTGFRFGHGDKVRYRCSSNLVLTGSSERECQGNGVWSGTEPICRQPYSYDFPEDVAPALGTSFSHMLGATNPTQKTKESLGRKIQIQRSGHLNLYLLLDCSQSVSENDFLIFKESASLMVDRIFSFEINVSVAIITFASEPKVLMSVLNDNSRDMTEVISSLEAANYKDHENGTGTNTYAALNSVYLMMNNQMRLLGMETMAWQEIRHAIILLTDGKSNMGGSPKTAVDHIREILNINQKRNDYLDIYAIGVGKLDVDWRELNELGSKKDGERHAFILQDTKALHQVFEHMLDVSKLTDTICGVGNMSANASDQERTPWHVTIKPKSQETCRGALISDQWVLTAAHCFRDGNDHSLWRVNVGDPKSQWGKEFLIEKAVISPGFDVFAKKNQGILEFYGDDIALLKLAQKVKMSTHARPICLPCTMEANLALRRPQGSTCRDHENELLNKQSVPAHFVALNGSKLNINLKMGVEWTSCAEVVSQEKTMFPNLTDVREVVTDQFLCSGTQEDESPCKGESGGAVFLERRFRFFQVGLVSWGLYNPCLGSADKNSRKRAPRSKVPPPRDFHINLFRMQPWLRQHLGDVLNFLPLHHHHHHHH
# T4: human C2 R688A (human, UniProt P06681 21-752)
# T4 sequence: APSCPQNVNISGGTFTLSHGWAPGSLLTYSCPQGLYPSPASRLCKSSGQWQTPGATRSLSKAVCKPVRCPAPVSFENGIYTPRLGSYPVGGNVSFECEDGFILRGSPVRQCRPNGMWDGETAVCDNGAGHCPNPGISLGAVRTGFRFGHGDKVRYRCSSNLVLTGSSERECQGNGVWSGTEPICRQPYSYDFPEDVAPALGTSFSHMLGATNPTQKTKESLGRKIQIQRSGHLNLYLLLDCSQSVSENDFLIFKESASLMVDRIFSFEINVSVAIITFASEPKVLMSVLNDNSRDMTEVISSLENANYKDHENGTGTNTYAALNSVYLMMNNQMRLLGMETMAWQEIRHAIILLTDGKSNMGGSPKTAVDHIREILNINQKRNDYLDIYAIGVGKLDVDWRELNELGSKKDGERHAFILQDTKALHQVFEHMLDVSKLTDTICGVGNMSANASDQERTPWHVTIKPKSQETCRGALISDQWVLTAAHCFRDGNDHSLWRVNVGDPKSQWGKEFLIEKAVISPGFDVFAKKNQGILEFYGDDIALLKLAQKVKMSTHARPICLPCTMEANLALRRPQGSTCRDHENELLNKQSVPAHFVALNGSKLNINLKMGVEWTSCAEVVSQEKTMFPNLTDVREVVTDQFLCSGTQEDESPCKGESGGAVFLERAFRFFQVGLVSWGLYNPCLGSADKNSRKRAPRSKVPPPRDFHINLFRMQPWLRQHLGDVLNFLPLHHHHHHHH
# B1: RF16-226 (antibody, human IgG4 S228P, lambda)
# heavy: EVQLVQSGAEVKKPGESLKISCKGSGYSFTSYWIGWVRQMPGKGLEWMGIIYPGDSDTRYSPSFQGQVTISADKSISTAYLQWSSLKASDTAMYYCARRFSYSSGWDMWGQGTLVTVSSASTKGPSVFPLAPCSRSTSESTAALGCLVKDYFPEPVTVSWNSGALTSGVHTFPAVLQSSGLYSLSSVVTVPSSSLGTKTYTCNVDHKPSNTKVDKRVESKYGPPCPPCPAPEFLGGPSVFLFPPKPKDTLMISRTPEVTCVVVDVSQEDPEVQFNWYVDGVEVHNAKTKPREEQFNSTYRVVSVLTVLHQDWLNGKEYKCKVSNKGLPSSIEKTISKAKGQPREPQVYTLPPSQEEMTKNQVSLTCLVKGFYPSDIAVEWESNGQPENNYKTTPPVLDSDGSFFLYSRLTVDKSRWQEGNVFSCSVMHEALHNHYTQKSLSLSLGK
# light: SYELTQPPSVSVSPGQTARITCSGDALTSKYVAWYQQKSGLAPLLVIYEDTRRPSGIPAKFSGSSSGSVATLTISGAHGDDEADYYCYSTDASGHQRVFGGGTKLTVLSQPKAAPSVTLFPPSSEELQANKATLVCLISDFYPGAVTVAWKADGSPVKAGVETTKPSKQSNNKYAASSYLSLTPEQWKSHRSYSCQVTHEGSTVEKTVAPTECS
# notes: pH-dependent anti-C2 antibody from a phage display library; also called WT
# What was measured:
# Test in all cases: SPR, KD relative to WT C2;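 further: biacore SPR at 37 °C, anti-C2 mAbs captured via immobilised goat anti-human IgG, C2 alanine or serine surface mutants as analytes, 1:1 model fitted, double-referenced sensograms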
# human C2 I320A = target: T1, human C2 I320A
# human C2 E324A = target: T2, human C2 E324A
# human C2 N325A = target: T3, human C2 N325A
# human C2 R688A = target: T4, human C2 R688A
binder,measurement,setting,value
B1,Fold diff,human C2 I320A,12 fold
same,Fold diff,human C2 E324A,1 fold
same,Fold diff,human C2 N325A,5 fold
same,Fold diff,human C2 R688A,3 fold
